± gives the uncertainty stated by the source.
B1: POU domain, class 3, transcription factor 1, residues 247 to 324; numbered along this chain, Q03052 (parent)
chain: EDAPSSDDLEQFAKQFKQRRIKLGFTQADVGLALGTLYGNVFSQTTICRFEALQLSFKNMCKLKPLLNKWLEETDSSS

Variants of: B1
Assay: abundance fitness (aPCA) (normalised: wild type 0, dead -1); higher = more abundant; growth selection in yeast, the domain comes from the species named
Details: Homo sapiens

| Variant | abundance fitness |
| --- | --- |
| EDAPSSDDLEQFAKQFKQRRIKLGFTQADVGLALGTLYGNVNSQTTICRFEALQLSFKNMCKLKPLLNKWLEETDSSS | -0.597 ± 0.22 |
| EDAPSSDDLEQFAKQFKQRRIKLGFTQADVGLALGTLYGNVSSQTTICRFEALQLSFKNMCKLKPLLNKWLEETDSSS | -0.365 ± 0.071 |
| EDAPSSDDLEQFAKQFKQRRIKLGFTQADVGLALGTLYGNVYSQTTICRFEALQLSFKNMCKLKPLLNKWLEETDSSS | 0.048 ± 0.11 |
| EDAPSSDDLEQFAKQFKQRRIKLGFTQADVGLALGTLYGNVISQTTICRFEALQLSFKNMCKLKPLLNKWLEETDSSS | 0.231 ± 0.096 |
| EDAPSSDDLEQFAKQFKQRRIKLGFTQADVGLALGTLYGNVDSQTTICRFEALQLSFKNMCKLKPLLNKWLEETDSSS | -0.295 ± 0.13 |
| EDAPSSDDLEQFAKQFKQRRIKLGFTQADVGLALGTLYGNVPSQTTICRFEALQLSFKNMCKLKPLLNKWLEETDSSS | -0.265 ± 0.1 |
| EDAPSSDDLEQFAKQFKQRRIKLGFTQADVGLALGTLYGNVLSQTTICRFEALQLSFKNMCKLKPLLNKWLEETDSSS | -0.043 ± 0.056 |
| EDAPSSDDLEQFAKQFKQRRIKLGFTQADVGLALGTLYGNVVSQTTICRFEALQLSFKNMCKLKPLLNKWLEETDSSS | 0.064 ± 0.045 |
| EDAPSSDDLEQFAKQFKQRRIKLGFTQADVGLALGTLYGNVKSQTTICRFEALQLSFKNMCKLKPLLNKWLEETDSSS | -0.656 ± 0.14 |
| EDAPSSDDLEQFAKQFKQRRIKLGFTQADVGLALGTLYGNVTSQTTICRFEALQLSFKNMCKLKPLLNKWLEETDSSS | -0.071 ± 0.077 |
| EDAPSSDDLEQFAKQFKQRRIKLGFTQADVGLALGTLYGNVESQTTICRFEALQLSFKNMCKLKPLLNKWLEETDSSS | -0.114 ± 0.067 |
| EDAPSSDDLEQFAKQFKQRRIKLGFTQADVGLALGTLYGNVQSQTTICRFEALQLSFKNMCKLKPLLNKWLEETDSSS | 0.001 ± 0.075 |
| EDAPSSDDLEQFAKQFKQRRIKLGFTQADVGLALGTLYGNVGSQTTICRFEALQLSFKNMCKLKPLLNKWLEETDSSS | -0.594 ± 0.073 |
| EDAPSSDDLEQFAKQFKQRRIKLGFTQADVGLALGTLYGNVHSQTTICRFEALQLSFKNMCKLKPLLNKWLEETDSSS | -0.226 ± 0.13 |
| EDAPSSDDLEQFAKQFKQRRIKLGFTQADVGLALGTLYGNVMSQTTICRFEALQLSFKNMCKLKPLLNKWLEETDSSS | 0.014 ± 0.072 |
| EDAPSSDDLEQFAKQFKQRRIKLGFTQADVGLALGTLYGNVWSQTTICRFEALQLSFKNMCKLKPLLNKWLEETDSSS | -0.191 ± 0.065 |
| EDAPSSDDLEQFAKQFKQRRIKLGFTQADVGLALGTLYGNVRSQTTICRFEALQLSFKNMCKLKPLLNKWLEETDSSS | -0.493 ± 0.06 |
| EDAPSSDDLEQFAKQFKQRRIKLGFTQADVGLALGTLYGNVFSWTTICRFEALQLSFKNMCKLKPLLNKWLEETDSSS | -0.55 ± 0.095 |
| EDAPSSDDLEQFAKQFKQRRIKLGFTQADVGLALGTLYGNVFSTTTICRFEALQLSFKNMCKLKPLLNKWLEETDSSS | 0.118 ± 0.064 |
| EDAPSSDDLEQFAKQFKQRRIKLGFTQADVGLALGTLYGNVFSLTTICRFEALQLSFKNMCKLKPLLNKWLEETDSSS | -0.502 ± 0.069 |
| EDAPSSDDLEQFAKQFKQRRIKLGFTQADVGLALGTLYGNVFSETTICRFEALQLSFKNMCKLKPLLNKWLEETDSSS | 0.266 ± 0.05 |
| EDAPSSDDLEQFAKQFKQRRIKLGFTQADVGLALGTLYGNVFSYTTICRFEALQLSFKNMCKLKPLLNKWLEETDSSS | -0.266 ± 0.15 |
| EDAPSSDDLEQFAKQFKQRRIKLGFTQADVGLALGTLYGNVFSVTTICRFEALQLSFKNMCKLKPLLNKWLEETDSSS | -0.209 ± 0.053 |
| EDAPSSDDLEQFAKQFKQRRIKLGFTQADVGLALGTLYGNVFSMTTICRFEALQLSFKNMCKLKPLLNKWLEETDSSS | -0.262 ± 0.085 |

| Variant | abundance fitness |
| --- | --- |
| EDAPSSDDLEQFAKQFKQRRIKLGFTQADVGLALGTLYGNVFSDTTICRFEALQLSFKNMCKLKPLLNKWLEETDSSS | 0.195 ± 0.077 |
| EDAPSSDDLEQFAKQFKQRRIKLGFTQADVGLALGTLYGNVFSNTTICRFEALQLSFKNMCKLKPLLNKWLEETDSSS | 0.01 ± 0.084 |
| EDAPSSDDLEQFAKQFKQRRIKLGFTQADVGLALGTLYGNVFSATTICRFEALQLSFKNMCKLKPLLNKWLEETDSSS | 0.119 ± 0.047 |
| EDAPSSDDLEQFAKQFKQRRIKLGFTQADVGLALGTLYGNVFSCTTICRFEALQLSFKNMCKLKPLLNKWLEETDSSS | -0.515 ± 0.12 |
| EDAPSSDDLEQFAKQFKQRRIKLGFTQADVGLALGTLYGNVFSPTTICRFEALQLSFKNMCKLKPLLNKWLEETDSSS | 0.132 ± 0.064 |
| EDAPSSDDLEQFAKQFKQRRIKLGFTQADVGLALGTLYGNVFSGTTICRFEALQLSFKNMCKLKPLLNKWLEETDSSS | 0.03 ± 0.038 |
| EDAPSSDDLEQFAKQFKQRRIKLGFTQADVGLALGTLYGNVFSHTTICRFEALQLSFKNMCKLKPLLNKWLEETDSSS | -0.046 ± 0.11 |
| EDAPSSDDLEQFAKQFKQRRIKLGFTQADVGLALGTLYGNVFSITTICRFEALQLSFKNMCKLKPLLNKWLEETDSSS | -0.472 ± 0.14 |
| EDAPSSDDLEQFAKQFKQRRIKLGFTQADVGLALGTLYGNVFSFTTICRFEALQLSFKNMCKLKPLLNKWLEETDSSS | -0.323 ± 0.14 |
| EDAPSSDDLEQFAKQFKQRRIKLGFTQADVGLALGTLYGNVFSSTTICRFEALQLSFKNMCKLKPLLNKWLEETDSSS | 0.025 ± 0.055 |
| EDAPSSDDLEQFAKQFKQRRIKLGFTQADVGLALGTLYGNVFSKTTICRFEALQLSFKNMCKLKPLLNKWLEETDSSS | 0.041 ± 0.063 |
| EDAPSSDDLEQFAKQFKQRRIKLGFTQADVGLALGTLYGNVFSRTTICRFEALQLSFKNMCKLKPLLNKWLEETDSSS | -0.067 ± 0.044 |
| EDAPSSDDLEQFAKQFKQRRIKLGFTQADVGLALGTLYGNVFSQETICRFEALQLSFKNMCKLKPLLNKWLEETDSSS | 0.185 ± 0.054 |
| EDAPSSDDLEQFAKQFKQRRIKLGFTQADVGLALGTLYGNVFSQFTICRFEALQLSFKNMCKLKPLLNKWLEETDSSS | -0.016 ± 0.19 |
| EDAPSSDDLEQFAKQFKQRRIKLGFTQADVGLALGTLYGNVFSQHTICRFEALQLSFKNMCKLKPLLNKWLEETDSSS | -0.055 ± 0.17 |
| EDAPSSDDLEQFAKQFKQRRIKLGFTQADVGLALGTLYGNVFSQCTICRFEALQLSFKNMCKLKPLLNKWLEETDSSS | -0.346 ± 0.1 |
| EDAPSSDDLEQFAKQFKQRRIKLGFTQADVGLALGTLYGNVFSQATICRFEALQLSFKNMCKLKPLLNKWLEETDSSS | -0.023 ± 0.051 |
| EDAPSSDDLEQFAKQFKQRRIKLGFTQADVGLALGTLYGNVFSQDTICRFEALQLSFKNMCKLKPLLNKWLEETDSSS | 0.254 ± 0.068 |
| EDAPSSDDLEQFAKQFKQRRIKLGFTQADVGLALGTLYGNVFSQGTICRFEALQLSFKNMCKLKPLLNKWLEETDSSS | -0.076 ± 0.039 |
| EDAPSSDDLEQFAKQFKQRRIKLGFTQADVGLALGTLYGNVFKQTTICRFEALQLSFKNMCKLKPLLNKWLEETDSSS | -0.234 ± 0.079 |
| EDAPSSDDLEQFAKQFKQRRIKLGFTQADVGLALGTLYGNVFWQTTICRFEALQLSFKNMCKLKPLLNKWLEETDSSS | -0.371 ± 0.087 |
| EDAPSSDDLEQFAKQFKQRRIKLGFTQADVGLALGTLYGNVFTQTTICRFEALQLSFKNMCKLKPLLNKWLEETDSSS | -0.04 ± 0.062 |
| EDAPSSDDLEQFAKQFKQRRIKLGFTQADVGLALGTLYGNVFHQTTICRFEALQLSFKNMCKLKPLLNKWLEETDSSS | -0.108 ± 0.14 |
| EDAPSSDDLEQFAKQFKQRRIKLGFTQADVGLALGTLYGNVFDQTTICRFEALQLSFKNMCKLKPLLNKWLEETDSSS | 0.17 ± 0.066 |

| Variant | abundance fitness |
| --- | --- |
| EDAPSSDDLEQFAKQFKQRRIKLGFTQADVGLALGTLYGNVFLQTTICRFEALQLSFKNMCKLKPLLNKWLEETDSSS | -0.872 ± 0.12 |
| EDAPSSDDLEQFAKQFKQRRIKLGFTQADVGLALGTLYGNVFNQTTICRFEALQLSFKNMCKLKPLLNKWLEETDSSS | 0.045 ± 0.091 |
| EDAPSSDDLEQFAKQFKQRRIKLGFTQADVGLALGTLYGNVFAQTTICRFEALQLSFKNMCKLKPLLNKWLEETDSSS | -0.378 ± 0.07 |
| EDAPSSDDLEQFAKQFKQRRIKLGFTQADVGLALGTLYGNVFRQTTICRFEALQLSFKNMCKLKPLLNKWLEETDSSS | -0.329 ± 0.055 |
| EDAPSSDDLEQFAKQFKQRRIKLGFTQADVGLALGTLYGNVFGQTTICRFEALQLSFKNMCKLKPLLNKWLEETDSSS | -0.297 ± 0.049 |
| EDAPSSDDLEQFAKQFKQRRIKLGFTQADVGLALGTLYGNVFPQTTICRFEALQLSFKNMCKLKPLLNKWLEETDSSS | -0.007 ± 0.071 |
| EDAPSSDDLEQFAKQFKQRRIKLGFTQADVGLALGTLYGNVFMQTTICRFEALQLSFKNMCKLKPLLNKWLEETDSSS | -0.63 ± 0.13 |
| EDAPSSDDLEQFAKQFKQRRIKLGFTQADVGLALGTLYGNVFYQTTICRFEALQLSFKNMCKLKPLLNKWLEETDSSS | -0.389 ± 0.18 |
| EDAPSSDDLEQFAKQFKQRRIKLGFTQADVGLALGTLYGNVFFQTTICRFEALQLSFKNMCKLKPLLNKWLEETDSSS | -1.04 ± 0.46 |
| EDAPSSDDLEQFAKQFKQRRIKLGFTQADVGLALGTLYGNVFVQTTICRFEALQLSFKNMCKLKPLLNKWLEETDSSS | -0.835 ± 0.11 |
| EDAPSSDDLEQFAKQFKQRRIKLGFTQADVGLALGTLYGNVFCQTTICRFEALQLSFKNMCKLKPLLNKWLEETDSSS | -0.485 ± 0.14 |
| EDAPSSDDLEQFAKQFKQRRIKLGFTQADVGLALGTLYGNQFSQTTICRFEALQLSFKNMCKLKPLLNKWLEETDSSS | 0.093 ± 0.062 |
| EDAPSSDDLEQFAKQFKQRRIKLGFTQADVGLALGTLYGNIFSQTTICRFEALQLSFKNMCKLKPLLNKWLEETDSSS | 0.025 ± 0.11 |
| EDAPSSDDLEQFAKQFKQRRIKLGFTQADVGLALGTLYGNMFSQTTICRFEALQLSFKNMCKLKPLLNKWLEETDSSS | 0.03 ± 0.084 |
| EDAPSSDDLEQFAKQFKQRRIKLGFTQADVGLALGTLYGNYFSQTTICRFEALQLSFKNMCKLKPLLNKWLEETDSSS | -0.079 ± 0.17 |
| EDAPSSDDLEQFAKQFKQRRIKLGFTQADVGLALGTLYGNPFSQTTICRFEALQLSFKNMCKLKPLLNKWLEETDSSS | 0.087 ± 0.07 |
| EDAPSSDDLEQFAKQFKQRRIKLGFTQADVGLALGTLYGNNFSQTTICRFEALQLSFKNMCKLKPLLNKWLEETDSSS | 0.116 ± 0.18 |
| EDAPSSDDLEQFAKQFKQRRIKLGFTQADVGLALGTLYGNKFSQTTICRFEALQLSFKNMCKLKPLLNKWLEETDSSS | 0.141 ± 0.069 |
| EDAPSSDDLEQFAKQFKQRRIKLGFTQADVGLALGTLYGNRFSQTTICRFEALQLSFKNMCKLKPLLNKWLEETDSSS | -0.035 ± 0.047 |
| EDAPSSDDLEQFAKQFKQRRIKLGFTQADVGLALGTLYGNLFSQTTICRFEALQLSFKNMCKLKPLLNKWLEETDSSS | -0.127 ± 0.057 |
| EDAPSSDDLEQFAKQFKQRRIKLGFTQADVGLALGTLYGNHFSQTTICRFEALQLSFKNMCKLKPLLNKWLEETDSSS | 0.253 ± 0.1 |
| EDAPSSDDLEQFAKQFKQRRIKLGFTQADVGLALGTLYGNSFSQTTICRFEALQLSFKNMCKLKPLLNKWLEETDSSS | 0.05 ± 0.054 |
